B1: NuMA 1-705 (domain or fragment, human, UniProt Q14980 1-705, looked up)
chain: MTLHATRGAALLSWVNSLHVADPVEAVLQLQDCSIFIKIIDRIHGTEEGQQILKQPVSERLDFVCSFLQKNRKHPSSPECLVSAQKVLEGSELELAKMTMLLLYHSTMSSKSPRDWEQFEYKIQAELAVILKFVLDHEDGLNLNEDLENFLQKAPVPSTCSSTFPEELSPPSHQAKREIRFLELQKVASSSSGNNFLSGSPASPMGDILQTPQFQMRRLKKQLADERSNRDELELELAENRKLLTEKDAQIAMMQQRIDRLALLNEKQAASPLEPKELEELRDKNESLTMRLHETLKQCQDLKTEKSQMDRKINQLSEENGDLSFKLREFASHLQQLQDALNELTEEHSKATQEWLEKQAQLEKELSAALQDKKCLEEKNEILQGKLSQLEEHLSQLQDNPPQEKGEVLGDVLQLETLKQEAATLAANNTQLQARVEMLETERGQQEAKLLAERGHFEEEKQQLSSLITDLQSSISNLSQAKEELEQASQAHGARLTAQVASLTSELTTLNATIQQQDQELAGLKQQAKEKQAQLAQTLQQQEQASQGLRHQVEQLSSSLKQKEQQLKEVAEKQEATRQDHAQQLATAAEEREASLRERDAALKQLEALEKEKAAKLEILQQQLQVANEARDSAQTSVTQAQREKAELSRKVEELQACVETARQEQHEAQAQVAELELQLRSEQQKATEKERVAQEKDQLQEQLQ
modifications: LD555 dye on the SNAP tag
notes: NuMA (nuclear mitotic apparatus protein), human, a.a; Construct used for the cryo-EM structure of the DDN complex; also called NuMA N-terminal construct; source: SF9 insect cells (baculovirus), purified (IgG Sepharose, TEV elution, Superose 6 SEC); not shown: His6, N-terminal, cleaved; ZZ, N-terminal, cleaved; SNAP, C-terminal, kept
B2: NuMA 1-1699 (domain or fragment, human, UniProt Q14980 1-1699, looked up)
chain: MTLHATRGAALLSWVNSLHVADPVEAVLQLQDCSIFIKIIDRIHGTEEGQQILKQPVSERLDFVCSFLQKNRKHPSSPECLVSAQKVLEGSELELAKMTMLLLYHSTMSSKSPRDWEQFEYKIQAELAVILKFVLDHEDGLNLNEDLENFLQKAPVPSTCSSTFPEELSPPSHQAKREIRFLELQKVASSSSGNNFLSGSPASPMGDILQTPQFQMRRLKKQLADERSNRDELELELAENRKLLTEKDAQIAMMQQRIDRLALLNEKQAASPLEPKELEELRDKNESLTMRLHETLKQCQDLKTEKSQMDRKINQLSEENGDLSFKLREFASHLQQLQDALNELTEEHSKATQEWLEKQAQLEKELSAALQDKKCLEEKNEILQGKLSQLEEHLSQLQDNPPQEKGEVLGDVLQLETLKQEAATLAANNTQLQARVEMLETERGQQEAKLLAERGHFEEEKQQLSSLITDLQSSISNLSQAKEELEQASQAHGARLTAQVASLTSELTTLNATIQQQDQELAGLKQQAKEKQAQLAQTLQQQEQASQGLRHQVEQLSSSLKQKEQQLKEVAEKQEATRQDHAQQLATAAEEREASLRERDAALKQLEALEKEKAAKLEILQQQLQVANEARDSAQTSVTQAQREKAELSRKVEELQACVETARQEQHEAQAQVAELELQLRSEQQKATEKERVAQEKDQLQEQLQALKESLKVTKGSLEEEKRRAADALEEQQRCISELKAETRSLVEQHKRERKELEEERAGRKGLEARLQQLGEAHQAETEVLRRELAEAMAAQHTAESECEQLVKEVAAWRERYEDSQQEEAQYGAMFQEQLMTLKEECEKARQELQEAKEKVAGIESHSELQISRQQNELAELHANLARALQQVQEKEVRAQKLADDLSTLQEKMAATSKEVARLETLVRKAGEQQETASRELVKEPARAGDRQPEWLEEQQGRQFCSTQAALQAMEREAEQMGNELERLRAALMESQGQQQEERGQQEREVARLTQERGRAQADLALEKAARAELEMRLQNALNEQRVEFATLQEALAHALTEKEGKDQELAKLRGLEAAQIKELEELRQTVKQLKEQLAKKEKEHASGSGAQSEAAGRTEPTGPKLEALRAEVSKLEQQCQKQQEQADSLERSLEAERASRAERDSALETLQGQLEEKAQELGHSQSALASAQRELAAFRTKVQDHSKAEDEWKAQVARGRQEAERKNSLISSLEEEVSILNRQVLEKEGESKELKRLVMAESEKSQKLEERLRLLQAETASNSARAAERSSALREEVQSLREEAEKQRVASENLRQELTSQAERAEELGQELKAWQEKFFQKEQALSTLQLEHTSTQALVSELLPAKHLCQQLQAEQAAAEKRHREELEQSKQAAGGLRAELLRAQRELGELIPLRQKVAEQERTAQQLRAEKASYAEQLSMLKKAHGLLAEENRGLGERANLGRQFLEVELDQAREKYVQELAAVRADAETRLAEVQREAQSTARELEVMTAKYEGAKVKVLEERQRFQEERQKLTAQVEQLEVFQREQTKQVEELSKKLADSDQASKVQQQKLKAVQAQGGESQQEAQRLQAQLNELQAQLSQKEQAAEHYKLQMEKAKTHYDAKKQQNQELQEQLRSLEQLQKENKELRAEAERLGHELQQAGLKTKEAEQTCRHLTAQVRSLEAQVAHADQQLRDLGK
modifications: LD555 dye on the SNAP tag
notes: NuMA (nuclear mitotic apparatus protein), human, a.a; 1-1699; also called NuMA N-terminal construct; source: SF9 insect cells (baculovirus), purified (IgG Sepharose, TEV elution, Superose 6 SEC); not shown: His6, N-terminal, cleaved; ZZ, N-terminal, cleaved; SNAP, C-terminal, kept
B3: NuMA 1-505 (domain or fragment, human, UniProt Q14980 1-505, looked up)
chain: MTLHATRGAALLSWVNSLHVADPVEAVLQLQDCSIFIKIIDRIHGTEEGQQILKQPVSERLDFVCSFLQKNRKHPSSPECLVSAQKVLEGSELELAKMTMLLLYHSTMSSKSPRDWEQFEYKIQAELAVILKFVLDHEDGLNLNEDLENFLQKAPVPSTCSSTFPEELSPPSHQAKREIRFLELQKVASSSSGNNFLSGSPASPMGDILQTPQFQMRRLKKQLADERSNRDELELELAENRKLLTEKDAQIAMMQQRIDRLALLNEKQAASPLEPKELEELRDKNESLTMRLHETLKQCQDLKTEKSQMDRKINQLSEENGDLSFKLREFASHLQQLQDALNELTEEHSKATQEWLEKQAQLEKELSAALQDKKCLEEKNEILQGKLSQLEEHLSQLQDNPPQEKGEVLGDVLQLETLKQEAATLAANNTQLQARVEMLETERGQQEAKLLAERGHFEEEKQQLSSLITDLQSSISNLSQAKEELEQASQAHGARLTAQVASLTS
modifications: LD555 dye on the SNAP tag
notes: NuMA (nuclear mitotic apparatus protein), human, a.a; The methods say 'C-terminal SNAP or mNG'; also called NuMA N-terminal construct; source: SF9 insect cells (baculovirus), purified (IgG Sepharose, TEV elution, Superose 6 SEC); not shown: His6, N-terminal, cleaved; ZZ, N-terminal, cleaved; SNAP, C-terminal, kept
B4: NuMA MTBD2 (domain or fragment, human, UniProt Q14980 2002-2115, looked up)
chain: ESKKATSCFPRPMTPRDRHEGRKQSTTEAQKKAAPASTKQADRRQSMAFSILNTPKKLGNSLLRRGASKKALSKASPNTRSGTRRSPRIATTTASAATAAAIGATPRAKGKAKH
notes: NuMA, human, a.a; 2002-2115; source: SF9 insect cells (baculovirus), purified (IgG Sepharose, TEV elution, Superdex 200 SEC); not shown: His6, N-terminal, cleaved; ZZ, N-terminal, cleaved; MBP, N-terminal, cleaved; mNG, C-terminal, kept
B5: TPR domain of LGN (a.a. 1-409) (domain or fragment, human, UniProt P81274 1-409, looked up)
chain: MEENLISMREDHSFHVRYRMEASCLELALEGERLCKSGDCRAGVSFFEAAVQVGTEDLKTLSAIYSQLGNAYFYLHDYAKALEYHHHDLTLARTIGDQLGEAKASGNLGNTLKVLGNFDEAIVCCQRHLDISRELNDKVGEARALYNLGNVYHAKGKSFGCPGPQDVGEFPEEVRDALQAAVDFYEENLSLVTALGDRAAQGRAFGNLGNTHYLLGNFRDAVIAHEQRLLIAKEFGDKAAERRAYSNLGNAYIFLGEFETASEYYKKTLLLARQLKDRAVEAQSCYSLGNTYTLLQDYEKAIDYHLKHLAIAQELNDRIGEGRACWSLGNAYTALGNHDQAMHFAEKHLEISREVGDKSGELTARLNLSDLQMVLGLSYSTNNSIMSENTEIDSSLNGVRPKLGRRHSM
modifications: LD655 dye on the SNAP tag (unlabeled LGN in some assays)
notes: LGN, human, N-terminal TPR domain a.a; 1-409; cloned from pTK47_mCherry-LGN-Hardened; The methods say 'C-terminal SNAP or mNG'; the LD655 labelling implies SNAP; also called LGN TPR; source: SF9 insect cells (baculovirus), purified (IgG Sepharose, TEV elution, Resource-Q ion exchange); not shown: His6, N-terminal, cleaved; ZZ, N-terminal, cleaved; SNAP, C-terminal, kept
B6: NuMA C (domain or fragment, human, UniProt Q14980 1700-2115, looked up)
chain: FQVATDALKSREPQAKPQLDLSIDSLDLSCEEGTPLSITSKLPRTQPDGTSVPGEPASPISQRLPPKVESLESLYFTPIPARSQAPLESSLDSLGDVFLDSGRKTRSARRRTTQIINITMTKKLDVEEPDSANSSFYSTRSAPASQASLRATSSTQSLARLGSPDYGNSALLSLPGYRPTTRSSARRSQAGVSSGAPPGRNSFYMGTCQDEPEQLDDWNRIAELQQRNRVCPPHLKTCYPLESRPSLSLGTITDEEMKTGDPQETLRRASMQPIQIAEGTGITTRQQRKRVSLEPHQGPGTPESKKATSCFPRPMTPRDRHEGRKQSTTEAQKKAAPASTKQADRRQSMAFSILNTPKKLGNSLLRRGASKKALSKASPNTRSGTRRSPRIATTTASAATAAAIGATPRAKGKAKH
notes: NuMA, human, C-terminal region a.a; 1700-2115; also called NuMA C-terminus; NuMA C-mNG; source: SF9 insect cells (baculovirus), purified (IgG Sepharose, TEV elution, Superdex 200 SEC); not shown: His6, N-terminal, cleaved; ZZ, N-terminal, cleaved; MBP, N-terminal, cleaved; mNG, C-terminal, kept

Data set [1] deals with the molecule itself. As to the kind of experiment: mass photometry; single protein diluted to 5-20 nM in 50 mM HEPES pH 7.4, 150 mM NaCl, 1 mM EGTA, 10% glycerol; TwoMP mass photometer.
Data set [2] has as its target microtubules (pig brain tubulin) (pig, UniProt P02550 1-451; Q767L7 1-444, Cy3 or Cy5 and biotin labels on a fraction of the tubulin | Cy3 or Cy5 and biotin labels on a fraction of the tubulin). Nature of the data set: TIRF imaging of fluorescent protein on surface-immobilised microtubules; Cy3/biotin taxol-stabilised MTs immobilised by streptavidin; serial dilutions of mNG-fused NuMA constructs in MBC buffer (30 mM HEPES pH 7.4, 5 mM MgSO4, 1 mM EGTA, 100 mM KAc, casein, pluronic, methylcellulose); apparent Kd from a fit to a binding isotherm. The note with it: both partners purified.

The target in the data set “NuMA C” is B6. Nature of the data set: mass photometry; NuMA C and LGN mixed in equimolar (20 nM) concentrations; mass photometry buffer. The following applies: both partners purified.

From paper doi:10.1101/2024.11.26.625568, “Structural and functional insights into activation and regulation of the dynein-dynactin-NuMA complex” (bioRxiv, 2024) come the findings set out here.

As a reminder, the stoichiometry N is a count of units in the complex or per binding partner.

B1: the “stoichiometry N” value in data set [1] worked out at 2.

On to B2, for which the “stoichiometry N” value in data set [1] came to 2. On to B3, for which, in data set [1], the “stoichiometry N” value was determined as 2.

Turning to B4, the Kd in data set [2] is 28 nM. For the molecule B5, in the data set with NuMA C, the “stoichiometry N” value came out at 3 LGN per 3 NuMA C. As for B6, the Kd in data set [2] came to 390 nM.
